Measured values from patent US20090068110A1, “ANTIBODIES TO INSULIN-LIKE GROWTH FACTOR RECEPTOR” (Genentech, Inc., priority 2006, published 2009).

What was measured:
[1] = molecular target: T1, human IGF-1R-ECD (Homo sapiens, UniProt P08069); assay: competitive ELISA, blocking of IGF-I/II and IGF-1R interaction; format: binding; conditions: antibody 100 nM to 0.0976 nM, biotinyl-IGF-I or IGF-II 60 ng/ml
T1 construct: containing the extracellular domain (ECD, amino acids 1-902) tagged with 10 or 12 histidine residues at the carboxyl terminus; His10 or His12 (C); made in house; host or cells: CHO cells
Protocol: To determine whether the anti-IGF-1R antibodies could block ligand/receptor interaction, competitive ELISA was utilized. Human IGF-1R-ECD was coated overnight at 4° C. at 1 μg/ml in a 96-well immunoplate (Nalge Nunc International, Rochester, N.Y., USA). The ELISA plate was washed with wash buffer (PBS, 0.05% TWEEN™ 20 surfactant, pH 7.4), and 150 μl/well of blocking buffer (PBS with 0.5% BSA) was added for one hour at room temperature with gentle agitation. Purified anti-IGF-1R antibodies were first subjected to a two-fold dilution from 100 nM to 0.0976 nM in assay buffer (PBS, 0.5% BSA and 0.05% TWEEN™ 20 surfactant, pH 7.4) and added to the immunoplate to incubate at room temperature for one hour. Biothinyl-IGF-I or IGF-II at 60 ng/ml concentrations (Cell Science, Canton, Mass., USA) was then added and incubated for another 30 minutes. The ELISA plate was washed three times, and 100 μl/well of streptavidin-HRP (GE Healthcare, Piscataway, N.J., USA) at a dilution of 1:6,000 was added for 20 minutes. Color development was conducted as described in conjunction with the direct ELISA. The selected anti-IGF-1R antibodies inhibited IGF-I or IGF-II binding to IGF-1R to various degrees (FIGS. 19A and 19B for IGF-I and IGF-II, respectively).

[2] = test system: HMEC; assay: cell viability assay, HMEC; format: cell-based; set-up: key: +: growth inhibition; −: no or weak effect; conditions: Human Mammary Epithelial Cell
Protocol: (§1) The different cell lines were cultured in their respective culture media at 37° C. in a humidified atmosphere of 5% CO2. Subsequently, cells were detached from tissue-culture flasks using the cell-dissociation solution, TRIPLE SELECT™ solution (InVitrogen, Carlsbad, Calif., USA), and centrifuged at 1000 rpm for five minutes. Detached cells were washed once with PBS, counted, and seeded in 96-well plates (Corning, N.Y., USA) at 2000 cells per well in 100 μL of culture media. After an overnight incubation at 37° C. in a humidified atmosphere of 5% CO2, the cell-culture medium was replaced with 50 μL of starvation medium consisting of serum-free RPMI 1640™ medium without phenol red. The cells were then starved for five hours in the incubator before addition of 25 μL of each anti-IGF-1R monoclonal antibody at various dilutions in serum-free RPMI 1640™ phenol red-free media. Later, 25 μL of phenol red-free RPMI 1640™ media supplemented with 4% of fetal bovine serum (FBS) (Sigma) with or without 4 ng/ml of human recombinant IGF-I were added on top of the 50 μL of antibody. The cells were then placed at 37° C. with 5% CO2 for 5 to 6 days. At the end of the assay, cell viability was measured using the […]-GLO® kit according to the manufacturer's instructions (Promega, Madison, Wis., USA).

[3] = test system: MCF7 cells; assay: cell viability assay ([…]-GLO), MCF7; format: cell-based, human; set-up: key to Effect of IR3, 6D2, 9F2, and 10H5: +: growth inhibition; −: no or weak effect; conditions: MCF7, Breast Adenocarcinoma
Protocol: as §1
For the cell viability assay, MCF7 cells were seeded onto 96-well plates at 2000 cells/well and incubated overnight at 37° C. in a humidified atmosphere of 5% CO2/95% air in RPMI 1640™ medium supplemented with 10% FBS (Sigma, St. Louis, Mo.) and 1% GLUTAMAX™ reagent (Promega, Madison, Wis.). The next day cells were starved in serum-free RPMI 1640™ medium (phenol red-free) for five hours followed by addition of serially diluted human chimeric versions of 9F2, 2B4, and 10H5, as well as h10H5.vX, for one hour. Subsequently, phenol red-free PRMI 1640™ medium supplemented with FBS or IGF-I was added to reach a final concentration of 1% FBS and 1 ng/mL IGF-I. Cells were then incubated with continuous IGF-1R antibody exposure. After five days, the cell viability was then determined using a […]-GLO™ kit (Promega, Madison, Wis.) according to the manufacturer's instructions.

[4] = test system: PC3; assay: cell viability assay, PC3; format: cell-based, human; set-up: key: +: growth inhibition; −: no or weak effect; conditions: PC3, Prostate Adenocarcinoma
Protocol: as §1

[5] = test system: IGF-1R signaling (phospho-IGF-1R, AKT, ERK1/2); assay: Western blotting of IGF-1R signaling in MCF7 cells; format: cell-based, human; conditions: for inhibition of IGF-I-mediated AKT activation: serum-starved MCF7, IGF-I 50 ng/ml; for inhibition of IGF-II-mediated IGF-1R phosphorylation and downstream AKT and MAPK1/2 activation: serum-starved MCF7, IGF-II 100 ng/ml
Protocol: Also examined was the effect of these antibodies on ligand-dependent IGF-1R signaling by directly analyzing IGF-1R phosphorylation as well as major downstream pathways, such as AKT and MAPK activation. In this assay, MCF7 cells were grown in 6-well plates and serum was withdrawn for 16 hours. […] The cells were directly lysed in SDS sample buffer, and the lysate was analyzed by Western blotting using antibodies against IGF-1R, phospho-IGF-1R, AKT, phospho-AKT, ERK1/2, phospho-ERK1/2 (also called MAPK1/2 and phospho-MAPK1/2) (all from Cell Signaling Technology, Inc.; Beverly, Mass., USA).
For the IGF-1R signaling pathway analysis, MCF7 cells were grown in six-well plates for 24 hours and then serum starved (serum-free and phenol-free RPMI medium supplemented with 1 mg/mL BSA) overnight. The cells were first incubated with h10H5 for 20 minutes, then stimulated with 50 ng/mL IGF-1 or 100 ng/mL IGF-11 for ten minutes. Cells were directly lysed in SDS sample buffer to preserve protein phosphorylation. After brief sonication, the lysates were separated by SDS-PAGE and transferred to nitrocellulose membranes (Invitrogen; Carlsbad, Calif.), which were probed with anti-phospho-IGF-1R, AKT, and ERK1/2 antibodies. The same blots were then stripped using Stripping Buffer™ (Pierce Biotechnology; Rockford, Ill.) and re-probed with antibodies against total IGF-1R β, AKT, and ERK1/2.

[6] = test system: SW480; assay: cell viability assay, SW480; format: cell-based, human; set-up: key: +: growth inhibition; −: no or weak effect; conditions: SW480, Colorectal Adenocarcinoma
Protocol: as §1

[7] = test system: HT29; assay: cell viability assay, HT29; format: cell-based, human; set-up: key: +: growth inhibition; −: no or weak effect; conditions: HT29, Colorectal Adenocarcinoma
Protocol: as §1

[8] = test system: DU145; assay: cell viability assay, DU145; format: cell-based, human; set-up: key: +: growth inhibition; −: no or weak effect; conditions: DU145, Prostate Adenocarcinoma
Protocol: as §1

B1: 9F2: mouse monoclonal anti-IGF-1R antibody from hybridoma 9F2.6.2, ATCC PTA-7018 (antibody, V domains shown)
VH: QIQLVQSGPELKKPGETVKISCKASGYTLANYGMNWVKQAPGKGFKWMGWINTNTGKPTYSDEFKGRFVFSLETSASTAYLLINNLSNEDTATYFCARSIYYYGSRYFNVWGAGTT
VL: DIQMTQSTSSLSASLGDRVTISCRASQDINNYLTWYQQKPDGTVKLLIYYTSRLHSGVPSRFSGSGSGTDYSLTITNLEQEDFATYFCQQGNTLPWTFGEGTKVEIKR
inhibition of IGF-I or IGF-II binding to IGF-1R [1]: most potent group | Effect of IR3, 6D2, 9F2, and 10H5 [2]: − | Effect of IR3, 6D2, 9F2, and 10H5 [3]: + | Effect of IR3, 6D2, 9F2, and 10H5 [4]: − | inhibition of IGF-I-mediated AKT activation [5]: potently prevented AKT activation | inhibition of IGF-II-mediated IGF-1R phosphorylation and downstream AKT and MAPK1/2 activation [5]: remained as strong inhibitors | Effect of IR3, 6D2, 9F2, and 10H5 [6]: + | Effect of IR3, 6D2, 9F2, and 10H5 [7]: + | Effect of IR3, 6D2, 9F2, and 10H5 [8]: −

B2: 10H5: mouse monoclonal anti-IGF-1R antibody from hybridoma 10H5.3.4, ATCC PTA-7007 (antibody, V domains shown)
VH: QVQLQQPGAELVKPGASVTLSCKASGYTFTRFWIHWVKQRPGQGLEWIGEINPSNGRTNYNENFKNKATLTVDTSSSTAYMQLSSLTSEVSVVYYCARGGRLDQWGQGTT
VL: DIVMTQSQKFMSTSLGDRVSVTCKASQNVGSNVAWYQQKPGQSPEALIYSASYRYSGVPDRFTGSGSGTDFTLTISNVQSEDLAEYFCHQYNNYPYTFGGGTKVEIKR
inhibition of IGF-I or IGF-II binding to IGF-1R [1]: most potent group | Effect of IR3, 6D2, 9F2, and 10H5 [2]: − | Effect of IR3, 6D2, 9F2, and 10H5 [3]: + | Effect of IR3, 6D2, 9F2, and 10H5 [4]: − | inhibition of IGF-I-mediated AKT activation [5]: potently prevented AKT activation | inhibition of IGF-II-mediated IGF-1R phosphorylation and downstream AKT and MAPK1/2 activation [5]: remained as strong inhibitors | Effect of IR3, 6D2, 9F2, and 10H5 [6]: + | Effect of IR3, 6D2, 9F2, and 10H5 [7]: + | Effect of IR3, 6D2, 9F2, and 10H5 [8]: −
